# Test results reported in patent US20240352100A1 (AJOU UNIVERSITY INDUSTRY ACADEMIC COOPERATION FOUNDATION, published 2024).
# T1: His8-Avi-tag-β-catenin (recombinant, biotinylated, from E. coli) (human, UniProt P35222 1-781, limits assumed, biotinylated (Avi-tag, co-expressed with pBirAcm in the presence of D-Biotin))
# T1 construct: also called purified β-catenin; recombinant antigen protein β-catenin; not shown: His8-Avi tag
# T1 sequence (looked up): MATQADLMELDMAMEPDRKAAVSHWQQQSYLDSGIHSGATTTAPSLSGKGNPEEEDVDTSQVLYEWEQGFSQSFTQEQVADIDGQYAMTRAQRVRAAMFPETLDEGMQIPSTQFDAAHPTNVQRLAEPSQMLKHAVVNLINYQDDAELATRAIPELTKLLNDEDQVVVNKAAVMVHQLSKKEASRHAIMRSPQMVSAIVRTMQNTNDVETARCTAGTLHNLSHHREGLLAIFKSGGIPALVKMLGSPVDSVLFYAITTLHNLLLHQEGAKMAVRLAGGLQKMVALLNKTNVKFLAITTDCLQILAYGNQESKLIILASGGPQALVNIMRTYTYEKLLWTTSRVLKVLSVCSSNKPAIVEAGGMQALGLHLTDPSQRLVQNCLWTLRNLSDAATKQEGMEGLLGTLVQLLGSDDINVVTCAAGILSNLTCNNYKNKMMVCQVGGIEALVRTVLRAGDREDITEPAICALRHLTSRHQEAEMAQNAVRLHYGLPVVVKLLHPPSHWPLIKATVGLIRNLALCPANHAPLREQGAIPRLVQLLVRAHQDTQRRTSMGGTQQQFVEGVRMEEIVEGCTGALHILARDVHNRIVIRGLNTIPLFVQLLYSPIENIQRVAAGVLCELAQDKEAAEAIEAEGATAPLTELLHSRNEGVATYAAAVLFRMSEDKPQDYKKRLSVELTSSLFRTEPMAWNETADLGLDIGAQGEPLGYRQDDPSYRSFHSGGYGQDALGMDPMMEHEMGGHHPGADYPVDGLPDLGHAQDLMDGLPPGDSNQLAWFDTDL
# B1: inBC0 (antibody, V domains shown)
# VH: QVQLVESGGGVVQPGRSLRLSCAASGFTFSSYPMHWVRQAPGKGLEWVAVVSYDGSYKYYADSVKGRLTISRDNSKNTLYLQMNSLRAEDTAVYYCARATVRGVTKIRGVFDSWGRGALVTVSS
# VL: DYQLTQSPSSLSASVGDRVTITCKSSQSLLNSRDGKNYLAWYQQKPGKAPKMLIYWASTRESGVPSRFSGSGSGTDFTLTISSLQPEDFATYFCQQYWYWMFTFGQGTKVEIKR
# notes: Complete immunoglobulin made by putting the anti-β-catenin VH into inRas37; also called anti-β-catenin cytosol-penetrating interfering antibody inBC0
# B2: inBC2 (antibody, V domains shown)
# VH: QVQLVESGGGVVQPGRSLRLSCAASGFTFSSYPMHWVRQAPGKGLEWVAVVSYDGSYKYYADSVKGRLTISRDNSKNTLYLQMNSLRAEDTAVYYCARATVRGVTKIRGVFDSWGQGTLVTVSS
# VL: DYQLTQSPSSLSASVGDRVTITCKSSQSLLNSRDGKNYLAWYQQKPGKAPKMLIYWASTRESGVPSRFSGSGSGTDFTLTISSLQPEDFATYFCQQYWYWMFTFGQGTKVEIKR
# notes: Complete immunoglobulin; FR4 back-mutated form of inBC0; also called anti-β-catenin cytosol-penetrating interfering antibody inBC2; anti-β-catenin iMab
# How the values were obtained:
# [1] = biological target: β-catenin (endogenous, in colon cancer cell lines) (human) (UniProt P35222); experiment: cell-based or functional assay
# [2] = biological target: T1, His8-Avi-tag-β-catenin (recombinant, …); experiment: BLI (Octet QKe), antibody captured on AHC sensor, β-catenin 200-12.5 nM, 1:1 model
# Method: (§1) Affinity was calculated with Octet Data Analysis software 11.0 in a 1:1 binding model.
# The affinity of anti-β-catenin antibodies to β-catenin was analyzed using Octet QKe.
# [3] = biological target: T1, His8-Avi-tag-β-catenin (recombinant, …); experiment: BLI (Octet QKe): antibody captured on AHC sensor, β-catenin at 200, 100, 50, 25, 12.5 nM, 1:1 binding model
# Method: as §1
molecule,measurement,setting,value
inBC2-(A6)-VHL152-213 (antibody),"β-catenin degradation activity (Western blot, HCT116, 2 µM, 12 h)",[1],25%
inBC2-(G5)-VHL152-213 (antibody),"β-catenin degradation activity (Western blot, HCT116, 2 µM, 12 h)",[1],5%
inBC2-(G10)-VHL152-213 (antibody),"β-catenin degradation activity (Western blot, HCT116, 2 µM, 12 h)",[1],8%
inBC2-SOCS2153-198 (antibody),"β-catenin degradation ability (Western blot, three colon cancer cell lines)",[1],40%
same,β-catenin degradation ability compared to inBC2-VHL152-213 (Western blot) (% higher than inBC2-VHL152-213),[1],20
inBC2-VHL152-213 (antibody),"decrease in the amount of β-catenin (Western blot, HCT116, with or without MLN4924 or Bortezomib)",[1],30%
same,"β-catenin degradation activity (Western blot, DLD-1, 2 µM, 12 h)",[1],15%
same,"β-catenin degradation activity (Western blot, HCT116, 2 µM, 12 h)",[1],36%
same,"β-catenin degradation activity (Western blot, SW480, DLD-1, HCT116)",[1],20%
same,"β-catenin degradation activity over time (Western blot, DLD-1, 2 µM)",[1],25%
B1,Kd,[2],5.75 nM
same,koff,[3],0.000233 s⁻¹
same,kon,[3],40500 M⁻¹ s⁻¹
B2,Kd,[2],4.92 nM
same,koff,[3],0.000219 s⁻¹
same,kon,[3],44600 M⁻¹ s⁻¹
